Assay results as given in patent US20110250165A1.
Values belong to the binder of their own block, whether it stands above or below them.

Tests used:
2442 CXCR2/CXCR4 chimera [1] = experiment: FACS on 293T cells expressing CXCR4 variants
[2] = target: 2444b CXCR2/CXCR4 chimera (human) (UniProt P25025); experiment: FACS on 293T cells expressing CXCR4 variants
4442 CXCR2/CXCR4 chimera [3] = experiment: FACS on 293T cells expressing CXCR4 variants
[4] = target: human CXCR4 (wild type) (human) (UniProt P61073); experiment: FACS on 293T cells expressing CXCR4 variants
ΔN25-CXCR4 (human) = ΔN25-CXCR4 (human) (UniProt P61073); experiment: FACS on 293T cells expressing CXCR4 variants
ΔN31-CXCR4 (human) = ΔN31-CXCR4 (human) (UniProt P61073); experiment: FACS on 293T cells expressing CXCR4 variants
2242 CXCR2/CXCR4 chimera = experiment: flow cytometry, scFv-Fc on transfected 293T cells, FITC anti-human IgG
2442 CXCR2/CXCR4 chimera [5] = experiment: as above
[6] = target: 2444b CXCR2/CXCR4 chimera (human) (UniProt P25025); experiment: as above
4442 CXCR2/CXCR4 chimera [7] = experiment: as above
CXCR2 = CXCR2 (UniProt P25025); experiment: as above
[8] = target: human CXCR4 (wild type) (human) (UniProt P61073); experiment: as above
mouse CXCR4 (mouse) = mouse CXCR4 (mouse) (UniProt P70658); experiment: as above
[9] = target: rhesus macaque monkey CXCR4 (rhesus macaque) (UniProt P79394); experiment: as above
Δ-X4 = experiment: as above
[10] = target: rhesus macaque monkey CXCR4 (rhesus macaque) (UniProt P79394); experiment: flow cytometry, scFv-Fc on transfected 293T cells

Chain of CXCR2 (P25025 whole entry): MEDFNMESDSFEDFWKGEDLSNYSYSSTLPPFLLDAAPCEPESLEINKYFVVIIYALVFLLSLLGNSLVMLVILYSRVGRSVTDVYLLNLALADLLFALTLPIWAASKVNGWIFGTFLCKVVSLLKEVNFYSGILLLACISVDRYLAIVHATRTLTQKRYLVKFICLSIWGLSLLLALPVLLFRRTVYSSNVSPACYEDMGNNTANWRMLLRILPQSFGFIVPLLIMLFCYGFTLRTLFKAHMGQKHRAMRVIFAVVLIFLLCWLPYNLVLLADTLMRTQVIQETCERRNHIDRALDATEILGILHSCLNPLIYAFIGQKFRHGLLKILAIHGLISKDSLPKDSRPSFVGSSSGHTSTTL
Chain of rhesus macaque monkey CXCR4 (rhesus macaque) (P79394 whole entry): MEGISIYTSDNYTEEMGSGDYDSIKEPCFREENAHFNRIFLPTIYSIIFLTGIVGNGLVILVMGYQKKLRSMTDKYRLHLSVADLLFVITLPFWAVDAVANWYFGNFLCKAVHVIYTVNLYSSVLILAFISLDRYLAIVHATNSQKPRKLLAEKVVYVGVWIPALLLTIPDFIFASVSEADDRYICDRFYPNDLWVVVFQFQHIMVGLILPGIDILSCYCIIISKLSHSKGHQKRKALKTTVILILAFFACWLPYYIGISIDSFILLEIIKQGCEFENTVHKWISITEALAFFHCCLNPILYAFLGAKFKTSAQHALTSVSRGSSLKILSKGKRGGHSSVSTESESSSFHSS
Chain of human CXCR4 (wild type) (human) (P61073 whole entry): as the sequence (P79394 whole entry) above, with I24M, H35N, R38K, K146R, S176N, D214V counted along it
Chain of 2444b CXCR2/CXCR4 chimera (human) (P25025 other isoform, or with tags, fused parts or gaps mutant limits assumed): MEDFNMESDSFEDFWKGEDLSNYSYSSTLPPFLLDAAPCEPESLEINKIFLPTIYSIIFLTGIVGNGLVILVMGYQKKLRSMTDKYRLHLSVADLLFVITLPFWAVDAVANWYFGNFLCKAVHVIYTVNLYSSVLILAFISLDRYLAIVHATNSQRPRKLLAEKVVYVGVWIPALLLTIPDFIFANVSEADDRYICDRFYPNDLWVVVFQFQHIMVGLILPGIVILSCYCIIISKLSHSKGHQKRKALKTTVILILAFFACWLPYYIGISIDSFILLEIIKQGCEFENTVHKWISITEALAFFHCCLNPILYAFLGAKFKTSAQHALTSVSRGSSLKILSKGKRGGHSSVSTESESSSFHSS
Chain of mouse CXCR4 (mouse) (P70658 whole entry): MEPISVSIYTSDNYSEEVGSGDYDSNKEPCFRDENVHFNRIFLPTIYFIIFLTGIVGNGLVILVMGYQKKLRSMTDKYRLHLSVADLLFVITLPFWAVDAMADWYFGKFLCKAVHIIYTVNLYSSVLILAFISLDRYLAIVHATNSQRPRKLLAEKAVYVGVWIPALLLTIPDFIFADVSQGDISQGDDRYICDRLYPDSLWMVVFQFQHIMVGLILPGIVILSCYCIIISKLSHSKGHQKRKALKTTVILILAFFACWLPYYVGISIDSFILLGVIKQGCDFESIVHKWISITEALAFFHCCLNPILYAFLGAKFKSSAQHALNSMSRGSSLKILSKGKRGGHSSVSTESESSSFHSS

binding (+%) (2442 CXCR2/CXCR4 chimera [1]): -1.2% | binding (+%) [2]: -6.2% | binding (+%) (4442 CXCR2/CXCR4 chimera [3]): 89.1% | binding (+%) [4]: 100% | binding (+%) (ΔN25-CXCR4 (human)): -6.3% | binding (+%) (ΔN31-CXCR4 (human)): -7% | reactivity (MFI of chimeric receptor/MFI of wild type CXCR4 x 100%) (2242 CXCR2/CXCR4 chimera): 1.2% | reactivity (MFI of chimeric receptor/MFI of wild type CXCR4 x 100%) (2442 CXCR2/CXCR4 chimera [5]): 4.5% | reactivity (MFI of chimeric receptor/MFI of wild type CXCR4 x 100%) [6]: 8.3% | reactivity (MFI of chimeric receptor/MFI of wild type CXCR4 x 100%) (4442 CXCR2/CXCR4 chimera [7]): 61% | reactivity (MFI of chimeric receptor/MFI of wild type CXCR4 x 100%) (CXCR2): 4.7% | reactivity (MFI of chimeric receptor/MFI of wild type CXCR4 x 100%) [8]: 100% | reactivity (MFI of chimeric receptor/MFI of wild type CXCR4 x 100%) (mouse CXCR4 (mouse)): 3.6% | reactivity (MFI of chimeric receptor/MFI of wild type CXCR4 x 100%) [9]: 98.3% | reactivity (MFI of chimeric receptor/MFI of wild type CXCR4 x 100%) (Δ-X4): -1.6%
B1: 2N-Fc (Fc fusion, part only; not given: linker and human IgG1 hinge-Fc, not shown: another chain or arm of the molecule; a dimerising Fc or GST; small tags and cut ends)
VH: EVQLVESGGGVVQPGRSLRLSCAASGFTFSSYGMHWVRQAPGKGLEWVAVISYDGSNKYYADSVKGRFTISRDNSKNTLYLQVSSLRAEDTAVYYCVRDLVAAAGTAFDIWGQGTTVTVSS
VL: QPVLTQPRSVSGSPGQSVTISCTGTISDVGGHNFVSWYQQNPGKAPKLIIFEVTKRPAGVPDRFSGSKSGNTASLTVSGLQAEDEGEYYCSSYGGSNDVIFGGGTKLSVL

reactivity (MFI of chimeric receptor/MFI of wild type CXCR4 x 100%) (2242 CXCR2/CXCR4 chimera): 0.3% | reactivity (MFI of chimeric receptor/MFI of wild type CXCR4 x 100%) (2442 CXCR2/CXCR4 chimera [5]): 0.7% | reactivity (MFI of chimeric receptor/MFI of wild type CXCR4 x 100%) [6]: 0.7% | reactivity (MFI of chimeric receptor/MFI of wild type CXCR4 x 100%) (4442 CXCR2/CXCR4 chimera [7]): 15.5% | reactivity (MFI of chimeric receptor/MFI of wild type CXCR4 x 100%) (CXCR2): -0.52% | reactivity (MFI of chimeric receptor/MFI of wild type CXCR4 x 100%) [8]: 100% | reactivity (MFI of chimeric receptor/MFI of wild type CXCR4 x 100%) (mouse CXCR4 (mouse)): 2.1% | reactivity (MFI of chimeric receptor/MFI of wild type CXCR4 x 100%) [9]: 103% | reactivity (MFI of chimeric receptor/MFI of wild type CXCR4 x 100%) (Δ-X4): 3.1%
B2: 33-Fc (Fc fusion, part only; not given: linker and human IgG1 hinge-Fc, not shown: another chain or arm of the molecule; a dimerising Fc or GST; small tags and cut ends)
VH: QVTLKESGGGVVQPGRSLRLSCAASGFTFTNYGLHWVRQAPGKGLEWVAVISHDGTKKYYADSVKGRFTISRDSSENTLYLQMNSLRPEDSALYYCARDGGYCSGGRCYSYGMDVWGQGTTVTVSS
VL: QSVLTQPPSASGTPGQRVTISCSGSRSNIGSNTVNWYQQLPGTAPKLLIYTNNQRPSGVPDRFSGSKSGTSASLAITGLQAEDEADYYCLSFDSSLTSYVFGTGTKVTVL

binding (+%) (ΔN25-CXCR4 (human)): 13% | binding (+%) (ΔN31-CXCR4 (human)): 9%
B3: 33-IgG1 (antibody, V domains shown)
VH: B2 VH
VL: QSVLTQPPSASGTPGQRVTISCSGSRSNIGSNTVNWYQQLPGTAPKLLIYTNNQRPSGVPDRFSGSKSGTSASLAITGLQAEDEADYYCLSFDSSLTSYVFGTGTKVTVLG

reactivity (MFI of chimeric receptor/MFI of wild type CXCR4 x 100%) (2242 CXCR2/CXCR4 chimera): 11.6% | reactivity (MFI of chimeric receptor/MFI of wild type CXCR4 x 100%) (2442 CXCR2/CXCR4 chimera [5]): 7.6% | reactivity (MFI of chimeric receptor/MFI of wild type CXCR4 x 100%) [6]: 12.9% | reactivity (MFI of chimeric receptor/MFI of wild type CXCR4 x 100%) (4442 CXCR2/CXCR4 chimera [7]): 27.9% | reactivity (MFI of chimeric receptor/MFI of wild type CXCR4 x 100%) (CXCR2): 4.1% | reactivity (MFI of chimeric receptor/MFI of wild type CXCR4 x 100%) [8]: 100% | reactivity (MFI of chimeric receptor/MFI of wild type CXCR4 x 100%) [9]: 77.5% | reactivity (MFI of chimeric receptor/MFI of wild type CXCR4 x 100%) (Δ-X4): 9.6%
B4: 20-Fc (Fc fusion, part only; not given: linker and human IgG1 hinge-Fc, not shown: another chain or arm of the molecule; a dimerising Fc or GST; small tags and cut ends)
VH: EVQLVQSGGGLVQPGGSLRLSCAASGFTFSSYAMSWVRQAPGKGLEWVANIKQDGSEKYYVDSVKGRFTISRDNAKNSLYLQMNSLRAEDTAVYYCARDQVSGITIFGGKWRSPDVWGQGTTVTVSS
VL: SSELTQDPAVSVALGQTVRITCQGDSLRSYYASWYQQKPGQAPVLVIYGKNNRPSGIPDRFSGSKSHNTAYLTITGAQAEDEADYFCNSRSGSQRVFGGGTKLTVL

binding (+%) (2442 CXCR2/CXCR4 chimera [1]): -3.4% | binding (+%) [2]: 2.2% | binding (+%) (4442 CXCR2/CXCR4 chimera [3]): -0.4% | binding (+%) [4]: 100% | binding (+%) (ΔN25-CXCR4 (human)): 60% | binding (+%) (ΔN31-CXCR4 (human)): 12.8% | decrease of binding compared to human CXCR4 [10]: 60% | reactivity (MFI of chimeric receptor/MFI of wild type CXCR4 x 100%) (2242 CXCR2/CXCR4 chimera): 1% | reactivity (MFI of chimeric receptor/MFI of wild type CXCR4 x 100%) (2442 CXCR2/CXCR4 chimera [5]): 3.7% | reactivity (MFI of chimeric receptor/MFI of wild type CXCR4 x 100%) [6]: 4.7% | reactivity (MFI of chimeric receptor/MFI of wild type CXCR4 x 100%) (4442 CXCR2/CXCR4 chimera [7]): 1.4% | reactivity (MFI of chimeric receptor/MFI of wild type CXCR4 x 100%) [8]: 100% | reactivity (MFI of chimeric receptor/MFI of wild type CXCR4 x 100%) [9]: 41.9% | reactivity (MFI of chimeric receptor/MFI of wild type CXCR4 x 100%) (Δ-X4): 16.6%
B5: 6R-Fc (Fc fusion, part only; not given: VH-VL linker, hinge and IgG1 Fc, not shown: another chain or arm of the molecule; a dimerising Fc or GST; small tags and cut ends)
VH: QVQLQQSGPGLVKPSQTLSLTCAVSGDSVSSNFVAWNWIRQSPSRGLEWLGRTYYRSRWYNDYAVSVQSRIRVTPDTSKNQFSLHLDSVTPEDTAVYYCARGQHSGFDFWGQGTLVTVSS
VL: QSVLTQPPSVSKGLRQTATLTCTGNSNNVGNQGAAWLQQHQGHPPKLLSYRNNNRPSGISERFSASRSGNTASLTITGLQPEDEADYYCSAWDNRLKTYVFGTGGKVTVL
